This note sets out measurements from publication PMC12603206, “The sensitive and selective electrochemical detection of carcinoembryonic antigen using a nanoMIPs-aptamer sandwich assay”.

The data set deals with Carcinoembryonic antigen (CEA) (UniProt P06731 35-685). In words: electrochemical nanoMIPs-aptamer sandwich assay (SWASV of Pb2+); CEA captured on nanoMIPs electrode; aptamer on MOF-Pb probe; linear 1-1000 ng/mL, LOD 1.4 ng/mL (sensor values, not Kd); CEA in 0.01 M PBS pH 7.4, 1 h on nanoMIPs electrode, PBS/0.05% TWEEN20 wash; MOF-Pb-Apt probe (stored in 10 mM Tris-HCl pH 7.4) 30 min; temperature not stated. Conditions: protein: commercial.
Sequence of Carcinoembryonic antigen (CEA) (P06731 35-685): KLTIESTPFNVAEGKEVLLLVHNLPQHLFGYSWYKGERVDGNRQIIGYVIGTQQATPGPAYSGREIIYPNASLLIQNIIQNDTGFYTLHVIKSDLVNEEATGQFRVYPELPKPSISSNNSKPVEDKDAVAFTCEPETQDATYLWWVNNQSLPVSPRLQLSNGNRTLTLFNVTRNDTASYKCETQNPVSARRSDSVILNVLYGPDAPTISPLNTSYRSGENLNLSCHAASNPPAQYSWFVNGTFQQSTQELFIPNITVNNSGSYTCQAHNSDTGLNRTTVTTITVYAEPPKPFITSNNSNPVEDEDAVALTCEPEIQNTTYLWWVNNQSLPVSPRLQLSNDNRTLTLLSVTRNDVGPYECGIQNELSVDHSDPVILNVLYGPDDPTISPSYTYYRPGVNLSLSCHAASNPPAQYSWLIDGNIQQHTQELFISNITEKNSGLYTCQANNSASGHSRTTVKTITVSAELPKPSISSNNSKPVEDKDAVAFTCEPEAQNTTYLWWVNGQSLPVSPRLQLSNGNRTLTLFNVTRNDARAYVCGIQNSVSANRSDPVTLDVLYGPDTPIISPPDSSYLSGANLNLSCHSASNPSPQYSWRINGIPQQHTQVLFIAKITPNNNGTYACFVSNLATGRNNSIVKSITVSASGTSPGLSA

In the case of ATACCAGCTTATTCAATT (ssDNA, 5'-phosphate-C6) [CEA-specific aptamer], the binding result is recorded as “binds”.
